Data reported in PMC6680903 (Molecules, 2019).
Values belong to the binder of their own block, whether it stands above or below them.

Key:
Conditions in all cases: both partners purified
β2-Microglobulin [1] = biological target: T1, β2-Microglobulin (Homo sapiens, UniProt P61769); experiment: SPR; Biacore T200; β2M immobilised on a CM5 chip to 150 RU; VHH samples after the modification procedure (NHS-Fluo:VHH 0, 1, 5 or 20; 2 h at 4 °C, ultrafiltration) in 2-fold serial dilution, 30 μL/min, HBS-EP+, 25 °C; 1:1 model with drift and RI2
T1 construct: human β2-microglobulin; Amine-coupled to a CM5 chip (150 RU); also called antigen β2M; source: expressed and purified as previously described [27]

β2-Microglobulin [2] = biological target: T1, β2-Microglobulin; experiment: SPR; Biacore T200; β2M immobilised on a CM5 chip to 150 RU; VHH samples 'Origin' (no treatment) in 2-fold serial dilution, 30 μL/min, HBS-EP+, 25 °C; 1:1 model with drift and RI2
β2-Microglobulin (β2M) = biological target: T2, β2-Microglobulin (β2M) (Homo sapiens, UniProt P61769); experiment: SPR; Biacore T200; β2M immobilized on a CM5 chip to 150 RU; 2-fold serial diluted VHH at 30 μL/min in HBS-EP+; 25 °C; 1:1 binding model; VHH samples after incubation with NHS-Fluo at molar ratio 0 (negative control), 1, 5 or 20 and ultrafiltration
T2 construct: β2-microglobulin, human (the title says anti-human β2-microglobulin VHHs); Probably the mature protein without the signal peptide (surmised); also called antigen β2M; human β2-microglobulin; source: expressed and purified as previously described [27]

BSA = biological target: T3, BSA (Bos taurus, UniProt P02769); experiment: laser scanning confocal fluorescence imaging of protein-coated beads; β2M or BSA coupled to CNBr-activated Sepharose 4 Fast Flow beads; incubated with labeled NB-1 (10 μg/mL in PBS) 5 min at room temperature; washed five times with PBS; FV1000 microscope
T3 construct: BSA (bovine serum albumin); also called negative control - BSA
T3 sequence (P02769 25-607): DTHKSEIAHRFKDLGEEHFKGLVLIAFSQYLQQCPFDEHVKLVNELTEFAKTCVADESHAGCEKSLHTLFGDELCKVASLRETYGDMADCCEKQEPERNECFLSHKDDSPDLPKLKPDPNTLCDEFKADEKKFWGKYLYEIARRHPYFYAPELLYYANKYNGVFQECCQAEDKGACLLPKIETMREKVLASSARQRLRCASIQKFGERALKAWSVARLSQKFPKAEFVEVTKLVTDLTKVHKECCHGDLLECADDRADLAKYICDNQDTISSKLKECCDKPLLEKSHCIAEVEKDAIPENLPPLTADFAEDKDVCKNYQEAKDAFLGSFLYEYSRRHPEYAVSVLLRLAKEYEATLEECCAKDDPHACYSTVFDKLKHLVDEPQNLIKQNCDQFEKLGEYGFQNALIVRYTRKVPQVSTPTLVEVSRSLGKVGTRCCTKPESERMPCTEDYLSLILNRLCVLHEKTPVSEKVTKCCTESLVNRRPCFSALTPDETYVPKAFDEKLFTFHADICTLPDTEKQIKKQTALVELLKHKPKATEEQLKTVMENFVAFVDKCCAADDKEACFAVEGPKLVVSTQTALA

- koff (β2-Microglobulin [1]): 0.00165 s⁻¹
- kon (β2-Microglobulin [1]): 1310 M⁻¹ s⁻¹
- Kd (β2-Microglobulin [2]): 525 nM
- koff (β2-Microglobulin [2]): 0.00154 s⁻¹
- kon (β2-Microglobulin [2]): 2940 M⁻¹ s⁻¹
B1: NB-3 (VHH)
VHH: QVQLVESGGGLVQPGGSLRLSCAASGFSLDYYAIGWFRQAPGKEREGVSCISSSDDSTYYAGSVKGRFKISRDNAKSTVYLQMNSLKPEDSAVYYCAALHSGNYYYTPSYICDAEMDYWGKGTLVTVSS
notes: VHH domain of NB-3; flexible (G4S)4 linker between the VHH domain and the His6 tag, written out from '(G4S)4'; VHH-(G4S)4-His6; Template of the homology model: PDB 5J56 (GMQE 0.93). 'Origin' = no treatment; '0' = negative control; also called NB-3-Origin; NB-3-0; source: E. coli SHuffle T7, purified (HisTrap HP)

- Kd (β2-Microglobulin [1]): 3490 nM
- koff (β2-Microglobulin [1]): 0.00297 s⁻¹
- kon (β2-Microglobulin [1]): 849 M⁻¹ s⁻¹
B2: NB-3 modified with 1 time of NHS-Fluo (VHH)
VHH: B1 VHH
notes: as the VHH domain of Dm10; flexible (G4S)4 linker between the VHH domain and the His6 tag, written out from '(G4S)4'; A mixture of isomers with different numbers and places of fluorescein; also called NB-3-1; source: E. coli SHuffle T7, purified (HisTrap HP), modified with NHS-Fluo, ultrafiltration

- koff (β2-Microglobulin [1]): 0.00402 s⁻¹
- kon (β2-Microglobulin [1]): 286 M⁻¹ s⁻¹
B3: NB-3 modified with 20 times of NHS-Fluo (VHH)
VHH: B1 VHH
notes: as the VHH domain of Dm10; flexible (G4S)4 linker between the VHH domain and the His6 tag, written out from '(G4S)4'; A mixture of isomers with different numbers and places of fluorescein; also called NB-3-20; source: E. coli SHuffle T7, purified (HisTrap HP), modified with NHS-Fluo, ultrafiltration

- Kd (β2-Microglobulin [1]): 6620 nM
- koff (β2-Microglobulin [1]): 0.00369 s⁻¹
- kon (β2-Microglobulin [1]): 558 M⁻¹ s⁻¹
B4: NB-3 modified with 5 times of NHS-Fluo (VHH)
VHH: B1 VHH
notes: as the VHH domain of Dm10; flexible (G4S)4 linker between the VHH domain and the His6 tag, written out from '(G4S)4'; A mixture of isomers with different numbers and places of fluorescein; also called NB-3-5; source: E. coli SHuffle T7, purified (HisTrap HP), modified with NHS-Fluo, ultrafiltration

- Kd (β2-Microglobulin (β2M)): 1260 nM
- fold increase of KD against the sample without any treatment (β2-Microglobulin (β2M)): ~2 fold
B5: NB-3 (anti-β2M VHH, unmodified), VHH-(G4S)4-His6 (VHH)
VHH: B1 VHH
notes: VHH domain of NB-3; flexible (G4S)4 linker between the VHH domain and the 6xHis-tag, written out from the printed formula; Homology model built on template PDB 5J56 (GMQE 0.93), a template only; also called NB-3-origin; NB-3-0; source: E. coli SHuffle T7, purified (HisTrap HP)

- Kd (β2-Microglobulin (β2M)): 14100 nM
B6: NB-3 modified by a 20 fold amount of NHS-Fluo (VHH)
VHH: B1 VHH
notes: VHH domain as in m6 (NB-3); flexible (G4S)4 linker between the VHH domain and the 6xHis-tag, written out from the printed formula; Heterogeneous product of random amino modification; also called modified NB-3; NB-3 20:1; source: E. coli SHuffle T7, purified (HisTrap HP), then modified with NHS-Fluo (2 h, 4 °C), ultrafiltration

- koff (β2-Microglobulin [1]): 0.00669 s⁻¹
- kon (β2-Microglobulin [1]): 48500 M⁻¹ s⁻¹
- Kd (β2-Microglobulin [2]): 61.8 nM
- koff (β2-Microglobulin [2]): 0.00614 s⁻¹
- kon (β2-Microglobulin [2]): 99300 M⁻¹ s⁻¹
B7: NB-1 (VHH)
VHH: QVQLVESGGGLVQAGGSLRLSCAASGSTLDSYYIGWFRQAPGKEREGVSCISSSGNSIRYVDSVKDRFTISRDNGKNTAYLHINSLRPEDTAVYYCAASRRGRKPGLPCSLVRERYAYWGQGTQVTVSS
notes: VHH domain of NB-1; flexible (G4S)4 linker between the VHH domain and the His6 tag, written out from '(G4S)4'; VHH-(G4S)4-His6; Template of the homology model: PDB 4KDT (GMQE 0.99). 'Origin' = no treatment; '0' = negative control, all physical steps of the modification without NHS-Fluo; also called NB-1-Origin; NB-1-0; source: E. coli SHuffle T7, purified (HisTrap HP)

- binding result (BSA): no binding (tested: 10 μg/mL)
- Kd (β2-Microglobulin (β2M)): 297 nM
B8: NB-1 modified by a 20 fold amount of NHS-Fluo (VHH)
VHH: B7 VHH
notes: VHH domain as in m2 (NB-1); flexible (G4S)4 linker between the VHH domain and the 6xHis-tag, written out from the printed formula; also called labeled NB-1; modified NB-1; source: E. coli SHuffle T7, purified (HisTrap HP), then modified with NHS-Fluo (2 h, 4 °C), ultrafiltration

- Kd (β2-Microglobulin [1]): 177 nM
- koff (β2-Microglobulin [1]): 0.00761 s⁻¹
- kon (β2-Microglobulin [1]): 43000 M⁻¹ s⁻¹
B9: NB-1 modified with 1 time of NHS-Fluo (VHH)
VHH: B7 VHH
notes: as the VHH domain of Dm2; flexible (G4S)4 linker between the VHH domain and the His6 tag, written out from '(G4S)4'; A mixture of isomers with different numbers and places of fluorescein, unmodified VHH among them; also called NB-1-1; source: E. coli SHuffle T7, purified (HisTrap HP), modified with NHS-Fluo, ultrafiltration

- koff (β2-Microglobulin [1]): 0.00863 s⁻¹
- kon (β2-Microglobulin [1]): 29000 M⁻¹ s⁻¹
B10: NB-1 modified with 20 times of NHS-Fluo (VHH)
VHH: B7 VHH
notes: as the VHH domain of Dm2; flexible (G4S)4 linker between the VHH domain and the His6 tag, written out from '(G4S)4'; also called NB-1-20; labeled NB-1; source: E. coli SHuffle T7, purified (HisTrap HP), modified with NHS-Fluo, ultrafiltration
